Test results as given in patent US20140087995A1 (published 2014).
Numbered stars: 1 amine (or outer) side, 2 acyl side, 3 side chain; on linkers, the order of the positions; unused ones are H or OH. Bridge positions count the residues as written; N and C are the ends. Side chains are listed from the residue outwards. Ends that are not written are not given here. * marks the point of attachment. C20 diacid = O=C(O)CCCCCCCCCCCCCCCCCCC(=O)*; C18 diacid = O=C(O)CCCCCCCCCCCCCCCCC(=O)*; C16 diacid = O=C(O)CCCCCCCCCCCCCCC(=O)*; γGlu = O=C(O)[C@H](CCC(=O)[*:2])N[*:1]

B1: N^ε1-[(4S)-4-carboxy-4-(15-carboxypentadecanoylamino)butanoyl]-[Arg17,Pro21,Pro27,His34]-h-amylin (peptide)
peptide: K([γGlu-C16 diacid])CNTATCATQRLANFLRHSSPNFGAIPSSTNVGHNTY-NH2
modifications: disulfide 2-7; N-terminus assumed
SMILES: CC[C@H](C)[C@H](NC(=O)[C@H](C)NC(=O)CNC(=O)[C@H](Cc1ccccc1)NC(=O)[C@H](CC(N)=O)NC(=O)[C@@H]1CCCN1C(=O)[C@H](CO)NC(=O)[C@H](CO)NC(=O)[C@H](Cc1c[nH]cn1)NC(=O)[C@H](CCCNC(=N)N)NC(=O)[C@H](CC(C)C)NC(=O)[C@H](Cc1ccccc1)NC(=O)[C@H](CC(N)=O)NC(=O)[C@H](C)NC(=O)[C@H](CC(C)C)NC(=O)[C@H](CCCNC(=N)N)NC(=O)[C@H](CCC(N)=O)NC(=O)[C@@H](NC(=O)[C@H](C)NC(=O)[C@@H]1CSSC[C@H](NC(=O)[C@@H](N)CCCCNC(=O)CC[C@H](NC(=O)CCCCCCCCCCCCCCC(=O)O)C(=O)O)C(=O)N[C@@H](CC(N)=O)C(=O)N[C@@H]([C@@H](C)O)C(=O)N[C@@H](C)C(=O)N[C@@H]([C@@H](C)O)C(=O)N1)[C@@H](C)O)C(=O)N1CCC[C@H]1C(=O)N[C@@H](CO)C(=O)N[C@@H](CO)C(=O)N[C@H](C(=O)N[C@@H](CC(N)=O)C(=O)N[C@H](C(=O)NCC(=O)N[C@@H](Cc1c[nH]cn1)C(=O)N[C@@H](CC(N)=O)C(=O)N[C@H](C(=O)N[C@@H](Cc1ccc(O)cc1)C(N)=O)[C@@H](C)O)C(C)C)[C@@H](C)O
B2: N^ε1-[(4S)-4-carboxy-4-(19-carboxynonadecanoylamino)butanoyl]-[Asp14,Arg17,Pro21,Pro27,Pro34,Arg35]-h-amylin (peptide)
peptide: K([γGlu-C20 diacid])CNTATCATQRLADFLRHSSPNFGAIPSSTNVGPRTY-NH2
modifications: disulfide 2-7; N-terminus assumed
SMILES: CC[C@H](C)[C@H](NC(=O)[C@H](C)NC(=O)CNC(=O)[C@H](Cc1ccccc1)NC(=O)[C@H](CC(N)=O)NC(=O)[C@@H]1CCCN1C(=O)[C@H](CO)NC(=O)[C@H](CO)NC(=O)[C@H](Cc1c[nH]cn1)NC(=O)[C@H](CCCNC(=N)N)NC(=O)[C@H](CC(C)C)NC(=O)[C@H](Cc1ccccc1)NC(=O)[C@H](CC(=O)O)NC(=O)[C@H](C)NC(=O)[C@H](CC(C)C)NC(=O)[C@H](CCCNC(=N)N)NC(=O)[C@H](CCC(N)=O)NC(=O)[C@@H](NC(=O)[C@H](C)NC(=O)[C@@H]1CSSC[C@H](NC(=O)[C@@H](N)CCCCNC(=O)CC[C@H](NC(=O)CCCCCCCCCCCCCCCCCCC(=O)O)C(=O)O)C(=O)N[C@@H](CC(N)=O)C(=O)N[C@@H]([C@@H](C)O)C(=O)N[C@@H](C)C(=O)N[C@@H]([C@@H](C)O)C(=O)N1)[C@@H](C)O)C(=O)N1CCC[C@H]1C(=O)N[C@@H](CO)C(=O)N[C@@H](CO)C(=O)N[C@H](C(=O)N[C@@H](CC(N)=O)C(=O)N[C@H](C(=O)NCC(=O)N1CCC[C@H]1C(=O)N[C@@H](CCCNC(=N)N)C(=O)N[C@H](C(=O)N[C@@H](Cc1ccc(O)cc1)C(N)=O)[C@@H](C)O)C(C)C)[C@@H](C)O
B3: N^ε1-[(4S)-4-carboxy-4-(19-carboxynonadecanoylamino)butanoyl]-[Asp14,Arg17,Pro21,Pro27,Pro34,Glu35]-h-amylin (peptide)
peptide: K([γGlu-C20 diacid])CNTATCATQRLADFLRHSSPNFGAIPSSTNVGPETY-NH2
modifications: disulfide 2-7; N-terminus assumed
SMILES: CC[C@H](C)[C@H](NC(=O)[C@H](C)NC(=O)CNC(=O)[C@H](Cc1ccccc1)NC(=O)[C@H](CC(N)=O)NC(=O)[C@@H]1CCCN1C(=O)[C@H](CO)NC(=O)[C@H](CO)NC(=O)[C@H](Cc1c[nH]cn1)NC(=O)[C@H](CCCNC(=N)N)NC(=O)[C@H](CC(C)C)NC(=O)[C@H](Cc1ccccc1)NC(=O)[C@H](CC(=O)O)NC(=O)[C@H](C)NC(=O)[C@H](CC(C)C)NC(=O)[C@H](CCCNC(=N)N)NC(=O)[C@H](CCC(N)=O)NC(=O)[C@@H](NC(=O)[C@H](C)NC(=O)[C@@H]1CSSC[C@H](NC(=O)[C@@H](N)CCCCNC(=O)CC[C@H](NC(=O)CCCCCCCCCCCCCCCCCCC(=O)O)C(=O)O)C(=O)N[C@@H](CC(N)=O)C(=O)N[C@@H]([C@@H](C)O)C(=O)N[C@@H](C)C(=O)N[C@@H]([C@@H](C)O)C(=O)N1)[C@@H](C)O)C(=O)N1CCC[C@H]1C(=O)N[C@@H](CO)C(=O)N[C@@H](CO)C(=O)N[C@H](C(=O)N[C@@H](CC(N)=O)C(=O)N[C@H](C(=O)NCC(=O)N1CCC[C@H]1C(=O)N[C@@H](CCC(=O)O)C(=O)N[C@H](C(=O)N[C@@H](Cc1ccc(O)cc1)C(N)=O)[C@@H](C)O)C(C)C)[C@@H](C)O
B4: N^ε1-[(4S)-4-carboxy-4-(17-carboxyheptadecanoylamino)butanoyl]-[Arg17,Pro21,Pro27,His34]-h-amylin (peptide)
peptide: K([γGlu-C18 diacid])CNTATCATQRLANFLRHSSPNFGAIPSSTNVGHNTY-NH2
modifications: disulfide 2-7; N-terminus assumed
SMILES: CC[C@H](C)[C@H](NC(=O)[C@H](C)NC(=O)CNC(=O)[C@H](Cc1ccccc1)NC(=O)[C@H](CC(N)=O)NC(=O)[C@@H]1CCCN1C(=O)[C@H](CO)NC(=O)[C@H](CO)NC(=O)[C@H](Cc1c[nH]cn1)NC(=O)[C@H](CCCNC(=N)N)NC(=O)[C@H](CC(C)C)NC(=O)[C@H](Cc1ccccc1)NC(=O)[C@H](CC(N)=O)NC(=O)[C@H](C)NC(=O)[C@H](CC(C)C)NC(=O)[C@H](CCCNC(=N)N)NC(=O)[C@H](CCC(N)=O)NC(=O)[C@@H](NC(=O)[C@H](C)NC(=O)[C@@H]1CSSC[C@H](NC(=O)[C@@H](N)CCCCNC(=O)CC[C@H](NC(=O)CCCCCCCCCCCCCCCCC(=O)O)C(=O)O)C(=O)N[C@@H](CC(N)=O)C(=O)N[C@@H]([C@@H](C)O)C(=O)N[C@@H](C)C(=O)N[C@@H]([C@@H](C)O)C(=O)N1)[C@@H](C)O)C(=O)N1CCC[C@H]1C(=O)N[C@@H](CO)C(=O)N[C@@H](CO)C(=O)N[C@H](C(=O)N[C@@H](CC(N)=O)C(=O)N[C@H](C(=O)NCC(=O)N[C@@H](Cc1c[nH]cn1)C(=O)N[C@@H](CC(N)=O)C(=O)N[C@H](C(=O)N[C@@H](Cc1ccc(O)cc1)C(N)=O)[C@@H](C)O)C(C)C)[C@@H](C)O

Target: T1, human calcitonin receptor (human, UniProt P30988 25-474)
T1 construct: whole, on cells; Membranes of BHK cells stably transfected with the human calcitonin receptor (Assay VII); also called hCTR; hCT
T1 sequence (looked up): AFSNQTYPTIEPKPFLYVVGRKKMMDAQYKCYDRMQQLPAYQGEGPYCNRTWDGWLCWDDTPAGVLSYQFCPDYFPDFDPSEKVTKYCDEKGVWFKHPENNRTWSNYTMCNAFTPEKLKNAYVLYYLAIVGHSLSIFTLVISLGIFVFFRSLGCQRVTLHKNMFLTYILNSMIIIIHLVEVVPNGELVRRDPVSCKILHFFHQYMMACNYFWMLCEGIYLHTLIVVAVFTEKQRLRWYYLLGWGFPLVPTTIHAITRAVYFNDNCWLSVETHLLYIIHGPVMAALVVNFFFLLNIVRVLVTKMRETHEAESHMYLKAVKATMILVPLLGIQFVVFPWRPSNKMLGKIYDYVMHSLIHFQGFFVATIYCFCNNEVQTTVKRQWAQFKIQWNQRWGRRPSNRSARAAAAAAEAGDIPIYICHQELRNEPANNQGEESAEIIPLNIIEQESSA
Assay: ratio of IC50 at hCTR over IC50 at hAmylin-R (SPA competition assays)
Protocol: The resulting pellet was resuspended, homogenized and centrifuged (20.000 rpm, 15 min) in a buffer containing 20 mM Na-HEPES and 0.1 mM EDTA (pH 7.4, buffer 2). The resulting pellet was resuspended in buffer 2 and protein concentration was measured (BCA protein Assay, Pierce). The homogenate was kept cold during the whole procedure. The membranes were kept at −80° C. until use. The assay was performed in a 384 well Optiplate (PerkinElmer) in a total volume of 40 ul. Membranes were mixed with SPA beads. Final concentration of membranes 35 ng/μL final and SPA beads was 0.05 mg/well. Test-compounds were dissolved in DMSO and further diluted in assay buffer (50 mM Hepes, pH 7.4, 1 mM CaCl2, 5 mM MgCl₂, 0.1% OA and 0.02% Tween20). […] The final mixture was incubated with shaking at 400 rpm for 120 min at 25° C. prior to centrifugation (1500 rpm, 10 min). Samples were analyzed on TopCounter™ (Packard). The IC₅₀ was calculated using (one site binding competition analysis) GraphPad Prism5 as a measure of receptor affinity.
Membranes were prepared in the following way; the cells were rinsed with PBS and incubated with Versene for approximately 5 min before harvesting. The cells were flushed with PBS and the cell-suspension was centrifuged for 5 min at 1000 rpm. Cells were homogenized (Ultrathurrax) in a buffer containing 20 mM Na-HEPES and 10 mM EDTA (pH 7.4) and centrifuged at 20.000 rpm for 15 min. The resulting pellet was resuspended, homogenized and centrifuged (20.000 rpm, 15 min) in a buffer containing 20 mM Na-HEPES and 0.1 mM EDTA (pH 7.4, buffer 2). The resulting pellet was resuspended in buffer 2 and protein concentration was measured (BCA protein Assay, Pierce). The homogenate was kept cold during the whole procedure. The membranes were kept at −80° C. until use. Assay was performed in a 384 well Optiplate (PerkinElmer) in a total volume of 40 ul. Membranes were mixed with SPA beads.

Point of comparison: B4, “Ratio hCT/hAmylin binding” value 59.4. Against it:
- B1 — lower, 18.5
- B2 — higher, 151
- B3 — lower, 16.7

Target: T1, human calcitonin receptor
Assay: SPA competition against 125I-calcitonin, membranes of BHK cells with human calcitonin receptor (Assay VII)
Protocol: Membranes were prepared in the following way; the cells were rinsed with PBS and incubated with Versene for approximately 5 min before harvesting. The cells were flushed with PBS and the cell-suspension was centrifuged for 5 min at 1000 rpm. Cells were homogenized (Ultrathurrax) in a buffer containing 20 mM Na-HEPES and 10 mM EDTA (pH 7.4) and centrifuged at 20.000 rpm for 15 min. The resulting pellet was resuspended, homogenized and centrifuged (20.000 rpm, 15 min) in a buffer containing 20 mM Na-HEPES and 0.1 mM EDTA (pH 7.4, buffer 2). The resulting pellet was resuspended in buffer 2 and protein concentration was measured (BCA protein Assay, Pierce). The homogenate was kept cold during the whole procedure. The membranes were kept at −80° C. until use. Assay was performed in a 384 well Optiplate (PerkinElmer) in a total volume of 40 ul. Membranes were mixed with SPA beads. Final concentration of membranes 35 ng/μL final and Final concentration of SPA beads was 0.05 mg/well. Test-compounds were dissolved in DMSO and further diluted in assay buffer (50 mM Hepes, pH 7.4, 1 mM CaCl2, 5 mM MgCl₂, 0.1% OA and 0.02% Tween20). […] The final mixture was incubated for 120 min with shaking at 400 rpm at 25° C. prior to centrifugation (1500 rpm, 10 min). Samples were analyzed on TopCounter™ (Packard). The […] was calculated using (one site binding competition analysis) GraphPad Prism5 as a measure of receptor affinity.

Point of comparison: B3, IC50 3.27 nM. Against it:
- B1 — 3.3-fold higher, 10.8 nM
- B2 — 13-fold higher, 42.5 nM
- B4 — 6.9-fold higher, 22.7 nM
